Assay: label from the status in PepcDB records

Sequence	protein production
MSQMSPGQARVVDPILSTHARGYRQSTLIGKKLFPVAPVAQYGGKILTFGKEAFRLYNTKRAPGANTKRIDFGYEGDPYSIVPSALEAKVPRELMRDASQVPGIDLGARSVNTVLRIMALAHEHECAQIALDPAKYNADHKVKLVGSARWTSPDSDPTKDVETAKEAIADSIGMEPNRLMLSRKALSACKYHPKLIERVKYTRAESITIDMLKALWEVEEIVVGTARVATGANDSFGDVWGPDVWLGYVSDNPDPSVEEPSFGYTYQIEGHPLVEVPYWDNNAKSWIYGVSDDNTPALSGMLAGYLIEDAGLPAALEHHHHHH	not failed
MSQPLNVAVVGATGSVGEALVGLLDERDFPLHRLHLLASAESAGQRMGFAESSLRVGDVDSFDFSSVGLAFFAAAAEVSRAHAERARAAGCSVIDLSGALEPSVAPPVMVSVNAERLASQAAPFLLSSPCAVAAELCEVLAPLLATLDCRQLNLTACLSVSSLGREGVKELARQTAELLNARPLEPRLFDRQIAFNLLAQVGAVDAEGHSAIERRIFAEVQALLGERIGPLNVTCIQAPVFFGDSLSVTLQCAEPVDLAAVTRVLDATKGIEWVGEGDYPTVVGDALGQDETYVGRVRAGQADPCQVNLWIVSDNVRKGAALNAVLLGELLIKHYL	not failed
MSQPRNRWIVQLILALAVLAFVGVSVVPIIGALNDNTSPSNQNSASNQGDSLASNQQSKLADEVRGYELVLQREPENQTALKGLLQARLQLLALKQGNVQSVIEPLEKLAKLNPNQSEYGVLLAQAKQQIGDKEGAATAYRSILDTKPGDLKALQGMVVLLLDQQRPEAAVGLLQDTLTNAAQANTIQPGSVDVVAVQVLLGNVHAAQKRYPQAISAFDQAIQKDTKDFRPVLAKAMLLKQQGKATEAKPLFDSALALAPAQYKDEINKAATVSPAPAPPAPPAPTPESTPKQ	failed
MSQQQKQYDIHWLTGQFFDSSKESRYRDSIKARVRFESRLALPLVSVVVAMFGITDYNLLGLTREFYWLLTMRIAVVSSCLVLAFAIGRWGGYSRNAWLHSLPLWILATGIILIVPLRPESISTQITAVVVAIMAFYLLIPNLLTVAALASLYLTVGFLSAAAVYAGIPSENVLRVSLLLIMANIVGYCALLRIEFLQRKQFALLQDERDQNRDLLKEIKHRKSLEAQLRMVAERDALTGLDSRSHFMKRAEALLQRAQLEKTPFCLFMIDVDHFKRINDTWGHTRGDLILTKIAEVCEQSLRPTDVIGRFGGEEFVVGLPHTSPSEAQTIAERLKENVEALPLTAELSELCLSVTIGIAAAHGEEDDLDVLITRADNMLYEGKREGRNRVVMFGEGMDS	failed
MSQRVSPTLIGLFVVGALALGVVGVGAFGSGQFFEQRTTFISYFDESVNGLDVGAPVKFKGVPIGEVTDINLRVDLENETFQVPVQYAINLDPVTDTTGARLNLDDPTLLRDQIEDGLRAQLQLESIVTGKLYVELTYISDPDSAVYAQGPPSRLSIPTELSPLAKLGEGASGLVTNLRQFDVTQINENLVTFLVNANDKLEALDAEAINRSALSTIESVRKVVESKEVRTALQDMPKATERLRATIKDAQALIQRLDRGVEPTADELEKTSRQLRATLKRMRRTMDEVDQTLSPNSGIGYQMNEALSNLSEATEALRVLVQSLERNPSMFLRGREEPPPSNQQ	failed
MSQTDELTGTANRRFVFAKLALQVEQVSKGLEAPFCLCTLDIDFFKQINDRFGHKCGDAVLRDFVGIAHSVIRRVDCFGRIGGEEFMLILPRSSIAEGREIVERLLQKVRLSRPLSEFPDFSYSCSAGMTVFRMMENADDVFMRADQALYAAKEKGRDRLLAVTLEHHHHHH	failed
MSQTTVVNGVNVDQLMATIEQIKAKPEIAQFKFRATNQWMGGTHNQATIKDFYGACAEDDTRKPMVFDLDEPPVLLGENRGANPVEYLLVALSGCLTTSLVAHAAARGIALRGVKSRYEGDIDLRGFLGLSEEVPVGYREIRVFFSIDADLTDGQKEELIRMAQKYSPVYNTVAKPVPVAVLLDRG	not failed
MSQWITEWIPQVMNQLGYGGISLLMFLENLFPPIPSELIMPLAGFAVAQGKLELFPAIVAGIIGTILGAYPWYYIGKWVSEERLEQLADRYGKWIGLDAKDIHKSNVWFGRYGHQSVFFGRLVPGIRTIVSLPAGVNAMGLISFTLYSLGGISLWVTFLASAGYKLGDHYELVEQYLGPVSKIVLVSIVAILVLLIVRKQLRRRA	failed
MSQYQRLLLIADPQQHQSPAARRAVALARASGAALHALVFVEPPARTYLWEEHLEDSEREAYLQRHERWLQVEAQWMAEEGVQVTTQVIWSTQVLKDMLAYIDEFRPDLLIKDVTLESALKRVFVTPLDCHLLREAPVPVHLVNDAPHKLPRRIVAAVDPAQSDTQIRGLNTQIIQTAHALALQCDAQLHLLYAYDLMPMLDGVAPVASTAWSVNCLDELRDSLHKEFERLGDEHNVPQEFRHFIMGPPVPGIAQFVDEYLVDVVVMGTVHRTGFGRLIGSTTERALYSMPGSILAVKASGAA	failed
MSRAEKSTAEQSGHIQHGVRKAAGVVFMVFGTMCFASKSIFVKWAYEQGAQPEAVLLYRQLFAAPLFWLIFIVYRSKLPAKPEKAEIFKACAAGLLCFFLSPLLDFIGLHGVSATVERMIVMSYPMFVLIITAFVNKKMVSGKTFAAILLVNAGLFLAVGGWDVQALEANLSGAFLILLSAVAYAAYLVVAGGLVRQIGGIRMNAYGMSAASLAMAGYALLRSLREQPGIVLSYPPAMYGFFMIIAAVTTVIPFLFMLEGMKRIGAERGAVISMIGPVLTIFGGVLFLNERLTPVQWLGCLLVHLTVSLLEYRK	failed
MSRDPILSLPWPDARPLPDTFFDRDALLVARELLGKVIRHRQGNLWLAARIIETEAYYLEEKGSHASLGYTEKRKALFLDGGHIYMYYARGGDSLNFSAGGPGNAVLIKSGHPWLDRISDHTALERMQSLNPDSQGRPREIGRLCAGQTLLCKAMGLKVPEWDAQRFDPQRLFVDDVGERPSQVIQAARLGIPKGRDEHLPYRFVDAAFAAFCTRNPLRRGQVAGRDYHLLGHQDPHLQ	failed
MSRDTERYPVKHANSLWQIYKTVPFWKVVKNFVVIQLARYTPFVSVKNWLYRTFLKMDVGEKTAFALMVMPDIMFPERISVGRNSIIGYNTTILAHEYLIEEYRLGDVIIGDEVMVGANTTILPGVTIGDRAIIAAGTVVHKNVPPGAFVGGNPMQVIKQLEHHHHHH	failed
MSREDELLEKLDECENATAFLQVSNKIINLKLKALLPSVFVQDDLVKEYAVDPLLREDGPLVTTDVVSKLMFAMGKISLQTYADIGLYDQVLEYVVTQPEKIAFTDDVIYDFIKNQAVLSSQQDCFYLESINQLKFSSFESFSQMRYESLIKTVLKLSCEMLIERIEEEINQ	not failed
MSRGLLEACIEFIRETPAGDALRIVAYEFTFKRILLELKAALERGVDVRIVYHATTANEKAIADAKLPENSKGVQILFKRTRPQTPHNKFIVRLKKGKTPVSVWTGSTNFTPSGFLGQTNVGHKVTDGDIAKIYLQLWEGLKADPDDFDATQLEHHHHHH	not failed
MSRKVILTCAVTGNAPFNPKHPSMPITPAQIADACVEAAKAGASVAHIHVRDPKTGGGSRDPVLFKEVVDRVRSSGTDIVLNLTCGLGAFLLPDPEDESKALPESDVVPVAERVKHLEDCLPEIASLDITTGNQVEGKLEFVYLNTTRTLRAMARRFQELGIKPELEVFSPGDILFGKQLIEEGLIDGVPLFQMVLGVLWGAPASTETMIYQRNLIPANAQWAAFGIGRDQMPMMAQAALLGGNVRVGLEDNLYLSRGVFATNGQLVERARTVIEHLGMSVATPDEARDIMGLSRPA	not failed
MSRLFHQRGNVMPIHVITALPGGGKTAIMVEMLEAEAKIGARPLFAAGIDGLQPGLATVLDDPSQWNAKDAHGNYVVPDGSLVFVDEAWKWFGMKYGGSGMRQTTPDHVRALAEHRHRGLDFVWTTQQAHKQLYSFVHGLIGRHTFIKRRFGTRFLDVWEWDEMVENVNSASNREFSRHQVRTLPKHVYSLYKSAEIHT	failed
MSRMMKMGTGTLRVILWFASILIWFSIFVPIEYLVNYFSGETTNYILHSDDFMMPIKTHVASTNAIASFPSGLYTTLMIIGYILMLVGVFITIQAVSAIVRHIQEQDYFSTENSQQMNRIVKGQIWILGSSLLMACANQLTVSWLYRISQFGLGWDNLLSAFVDLIIFALIAMIYTRAVNMKTESDLTI	failed
MSRNHLPFSAGELEALPLFRFVPLECIEGILEHSCVVSLERGERFEPAGPLGRTIHLILDGRLALYYDVRERDDTPLHLERGDIVGQSLVSGEPEVPCTLVAAEETRLMILEEDLIWSLAQASHAAACNLLGILLRGRGGSPQESFSGTVRDYALRNQAVVDPLTGFQSRRWLEGILSRQVDRFTANGRPLSLVMIDIDGFRAFNERHGRAGGDRALHDVAKTLRNSLRPGELVARYGGDTFAVLLPETEPSTAWMIADRLRQRLMRTVIDMGDGAMLPPLSISAGVAEATPGIDGPTIADNALAALDRAKAAGGNTVSR	failed
MSRPRLELGTWGKITRTEVAEGKHRARARFRDFTGKTRQVEAYGASGAKAERQLLANLRSRVESAGDTISGNTTVSSLGKIWTGNLGKSDEHTEQTIERYESIVEKIIGPALGEYLIMEATVSRVDGFLRALADKTPGRAKTTKSVLKSMFDLAVRHDALRTNPVREVRLPTKRKKPVQALTIDEVGTLREGLRKWQAADGVKGPTRSTELLDVVDLMLGTGMRIGEVLALRWSDVDLGEHPRLTVSGTLVPIKEKGLRRQAHTKTASGFRVLTLPAFVVEVLLRRSVESIPTETNAVFPSGAGTWKWPNNYRRALRAALKEMENTSGITPHVFRKSVATLIDAEATLEAAAAVLGHSGTGVTSAHYVAKAATAPDMSSILDQFGGNRIQKDG	failed
MSRPTVSVIIPTHNRAKLLKRAIISVLNQTFEDFEIIVVDDASSDNTPNIIESIKDSRIRYIRLEKNSGAPTARNIGIKKARGKFIALLDDDDEWLPRKLEVQVKKFNELEKKFGVVYGGFYYVSQQNERIIGKRLPRFRGNVYGELLKENFIGSPTVLIRRECFKKAGLFDPKLPSSQDWDMWVRIARYYYFDYIVAKYYVHGHQISFNINEKYIPGREIFISKHKDIANNPKILSMHLTQMGLLSILGGNIEKGVKYLAQSITISPLNIDSYKKVIELTLDSRFLEYVKNILHANYLEHHHHHH	failed
MSRRGLEREGGKPVSSDAKGLKRVDVRLKWDPSPWDRPPHHLDIIATTYAADAPHGRPVYVVQFDKRSPDGTINMSRHSRTGQGFGFVEEMTFELDRLSPSIARVIVGVAIHQDNGHKTFDDVSNTGVVVAEGYRELLTDGFERVAGATAATVAEFTRNASGAWEFREAVRGFDSDPVLFATEMGSAPRP	not failed
MSRRRMSESLPPGVQVDPAAIEQLVGRPVDDLSHYRRALTHRSLLRVHPARTFRSNERLEFLGDALLDVFVGEVLYDRFPEKDEGALTRLRARLVSERPLATYARGLGLGPHLLMSENAAEGDGRDNPSILADAFEAFVGAVYLDLGHEAARGFVQDRVLAPVDLEDVATRDDNYKSQLLEHLQALGRPQPTYHVVEEKGPSHDKTFTVEVRVGDAAYERGTAGSKQDAEQQAARRTLDEMASDPPAS	failed
MSRSFFAVLRDGKRYADKWPHHSVVAAMAESRIIPITRKAISWTPGIAVLNAALTWQFMPQEQLAPGLMLSLIMLSLPLQGLYWLGWRSRQPLKPMLRNWYKELRDKLRKQGVECQPQGEKGPEYMDLAIILRKALETLPPEEH	failed
MSRSSSPPLAPARRTRGGHACLALAMVLAGSTVPASKLIAAEVAPFTATAIRLGLALPVFLLLMRATGARWPRPGRRDACLLALQAAAGSVGYTALLIAGLRLTSAADAAVVIGTLPAVTALLAMAVLRERPPPRTLAAIALAAAGVLVLVGGRTDDAPGSLAGNLLVLGAVVCEGLFILLSKRLRAPIAPLPLSAALTAIGAVLAGAAALAEAPWHAAFGSPALAVLAYYAWLPTVAGFVLWYAGLARASASEAALFTALAPVAAVLLAALALGETVGPRQAAGIGCVLAAVLALRPGGDKQSQKENIK	failed

— a protein production outcome set (Wang et al. 2014)
